From the DeepSol protein solubility set

Experiment: soluble on expression in E. coli; label from the status in PepcDB or PDB records

Sequence	soluble on expression in E. coli
MNLMNVADKVIKSAFESDEVFQKTLSAVIKEDLNLTAVDFAKKANIPPSTLYKILSGNRDPNIKTLRQIVKTIRDIKESDSGEFIAVIAARSVLDNIVETKKKIGGRLVTIREYSATSMEDAIISAVNAERDGAKALVCAPIVGPTVEKILNIPVTTIAPKNSLIDAIERALKKME	not soluble
MGSDKIHHHHHHMTITTQSLPVVRRHTIHFLEKAKNSQAVYLSTDIDASRIQEVKRRYEQASIKISYISFLLFAISRAIEVFPEVNSSVQGRWHLKRWQFSTIDAKVTLDKLAGQERMVVSSVIPETNKKSLLAIQDEINELKIASFETSDRFQSIRKLQRLPLWIGRIIYRKILQNPITWQQTQGSFTITSLGHVPIQSFFPITTNTVCFGVGSIRECAVVREGQVVVRPMLPLSMTFDHRAIDGALASEFLYRIKQNVEEWEVEAWEDDQKNQAMM	not soluble
MSVQPETMPDSSNKTNPTVKEVIAYLADKFPLCFSIEGEAKPLKVGLSQDLAEALADDEKVSKTLLRQVLRSYTMSWRYLACCKANAQRIGLQGENVGIVDEAQAEHAAQSLAVAKEAYAARKAEQRKEQRKDFFKKKAREERNAKTMNKAVKKGSPKKDTFAKATAESLAVLTHKFSKGNK	not soluble
MTHNHHHQAVDNLLNVFSRASHDLTVVHSKLDKEFQQMYPANANPMKLIQRIKKLQEDVTLLKHQCLDLLSAKQDLIDKAQTTLVGNCNLIQKMNASLGESTNGDTDDALADFNQIIDEWTMQVRSRTVGETEDADKEDINKMLFSAICHTN	soluble
QRKISNIGAQSSMKLEDIKTPSASLTTTLAGRLAGVVAVQRTGEPGKDAADIWIRGIATPNTATPLILVDGVERAFNDIDPEDIESLTTLKDASATAVYGVRGANGVIIIKTKPGK	not soluble
MGSDKIHHHHHHMNTLEKRQHEILTNPLHFCKKSGDFAKHSMSIKLSKNELFDVDFVTGIYFVEKGIVMKGTQIDDYIGYDQLLKPGDVCNFSSFMSSDLKRNIGAQLLSPSSSVITAVDRDFFIFMVEKHVSVEEFMLYQAKKEIMILQRRCLLNTLKVKDRVKHLIAAIGYEYGISNGDNIQIPQELSTTFLSKFMGITREYLSLTLSELKKEDYLLNTKIPVVINVEKLFNEIPYESLIL	not soluble
MGSDKIHHHHHHMSKPGAELEEVFSSVQGEGMLIGLRQVFIRFRGCNLTCDYCDTPAGTPAEPCRIEQTPGRRDFVPADNPVSLDRVAALVEGWQRGWPGVHDSISITGGEPLLRHDILMQWLPVLREHLPVYLETNGVMHAALGLVINHVDIIGMDIKIPSTSGCTDLWDDHRQFLEIANTRRAFIKIVVGEETEDWEITRASEIIAGVNRDIPLILQPVTRAGDTLGIKPVKALELQELACRYLAEVRIIPQTHRFMGQL	not soluble
MGSDKIHHHHHHMTTSITIGNFKGGVGKTTTCVTFSYLLNKAHRKTLLIDFDPQGNASEIIEKTFPVFKQKNSKSLTDGIKNLDLSESIAHVTDYLDLMPSDWSLSLLPDMLEDYKKSDRPLFLKTLLTKIRNDYDYILIDVPPTLSAYTNNAVLASDYVIMVMQTQEQSYSSSLKFVSYLQGLRKDYDKSFDLLGIIAYLVKKDGPVDHEVLKAANQAFGKALFHGNVFQRERVKRFGKSGIKDEDMWDKRALYMYQVVLDEALSRINLLEE	not soluble
MAHHHHHHMGTLEAQTQGPGSMSVMPDHWIKERALKDGMISPFVDHKEGTGVLSYGLSSYGYDARLDNKFKIFANTHSVVVDPKNFSQDSFVDREGDFCIIPPNSFMLAKTVEYFNIPRDVMVVCVGKSTYARCGIVVNVTPLEPGWSGYVTLEFSNTSPLPVKVYAFEGACQFLFFSGKERCSKSYDEAGGKYMGQSDVTLPIIS	soluble
MAMIHEMILDGKVVRYRVVEKPVKYVTLRVLEDGTILVVTPLEQIVREVLIKKKDWILSKISIVEEAKELSRKGFPLFGKFYSLEMGEKFEINREELRITFPGIEFLRNWIKREIKRKAREIAKDFGISPKRIYVKAMRTKWGSATWRKSITLNFSSAALPEELFHYLVIHELAHLIELNHSKRFWSLVASYHPDYKKKRRELKKWWFIVHSNETWRAILQWPEGLEHHHHHH	soluble
MGSDKIHHHHHHMSTILLPKTQHLVVFQEVIRSGSIGSAAKELGLTQPAVSKIINDIEDYFGVELVVRKNTGVTLTPAGQLLLSRSESITREMKNMVNEISGMSSEAVVEVSFGFPSLIGFTFMSGMINKFKEVFPKAQVSMYEAQLSSFLPAIRDGRLDFAIGTLSAEMKLQDLHVEPLFESEFVLVASKSRTCTGTTTLESLKNEQWVLPQTNMGYYSELLTTLQRNGISIENIVKTDSVVTIYNLVLNADFLTVIPCDMTSPFGSNQFITIPVEETLPVAQYAAVWSKNYRIKKAASVLVELAKEYSSYNGCRRRQLIEVG	not soluble
MGSDKIHHHHHHMTPTVMVVDESRITFLAVKNALEKDGFNVIWAKNEQEAFTFLRREKIDLVFVDVFEGEESLNLIRRIREEFPDTKVAVLSAYVDKDLIINSVKAGAVDYILKPFRLDYLLERVKKIISSTPRVTVSLRKNIEDLEITLKFEDIVRKEIKRSNRTGSRFCVMYVKFEDIMRDYETIKKFFRETDYVLPISASEYLFVLTLTGKHGIEAVTRRMKEKLSERFSYTYVCYPDDGKTYEEIILTLKDRMAKPRGNES	not soluble
MSLSDNVDVDVLSLVQNDALEESVAINSMISKARANFSGSLLQFQTRVSSVYGETNEENAVNPLDPEHICKAFSDACIGLDIEIKEKLIVYKQFDRYVMGNLVECLEEANKIMIQAGVMPNLKYTAKKSRVTPRSTSDVSARPLEAQSDANGYDGAGDVFSQVQELLSALRNTASNPEQQQGDPNTGAGGRQAPPPGNVQFIADADLLSILSRLQHSVRTENLAEGPVVALDLRTAVQGLLSEESQKSGKATALDQIDEDLINLVSMLFEFILDDYNLSAPIQVLISRLQIPILKVAIRDKSFFSKPSHPARKLLNALAKAGIGWSDASEKKRDKLYEQIHRAVQRILEEFNGESELFEEIYQEFSQYLSREERKAKLVEQRTKEAEIGRVKSHKAHQVVEQILSEKIAAQPLPPVAVELLRGGWSRVMFLAYLKEDTEHRLNQCTKVVDELTWCLQPHAEVEARQRWVKVVPQLLKNLKAGLKEVSYNSAKLEHMLGELKKALTETFKQQSITSEGHHHHHH	not soluble
GPGSMTTQNGVNYSQREVVHRMPDWVANRRASVNRGHVAPPLTADGMNPRKASFSGSNGEKQGAVYNNYTERVSSRSGGDRIFSFDNRSTSRRESGTNVSVRSLQPVAGRTAVTHTIRFRGARWSQALSNMSVALERAIKEDVAACCGISSERIGQMKMKFTDRLVVTFVLDHSHDPSEESRFHNQLKVYNFWRTVALYPRK	soluble
MHECKTVTLRTRPLKGRMMSFYLDYYPGYRDKETMKVIRHESLGIYIYANPRNKREQNFNEVMTEKAEAIRCRRFESVVNERYDFFDKYKLKADFLEYYRKQLRKHDQKWEFVYLHFNNFVHGKCTFEEIDIDLCNKFREYLLSAKKLRRNGRITRNSASGYWSTFRGFLKILYRNGMIKTNVNDFLEKIETEDVMKEALSVEELYKLAETPCKKPILKTASLFSCMTSLRISDILSLCWEDIVDYSAGGKCVHIITQKNKAEDIIPISEEALGLIGYSSEKKGLVFKGLMRSWTQIPMKEWI	not soluble
SNAMSVQTIERLQDYLLPEWVSIFDIADFSGRMLRIRGDIRPALLRLASRLAELLNESPGPRPWYPHVASHMRRRVNPPPETWLALGPEKRGYKSYAHSGVFIGGRGLSVRFILKDEAIEERKNLGRWMSRSGPAFEQWKKKVGDLRDFGPVHDDPMADPPKVEWDPRVFGERLGSLKSASLDIGFRVTFDTSLAGIVKTIRTFDLLYAEAEKGS	soluble
MGSDKIHHHHHHMKVYLVGGAVRDQLLGLPVKDRDWIVVGADPATLLSLGYQQVGKDFPVFLNPKTKEEYALARTERKSSAGYTGFICDFSPTITLEQDLIRRDLTINAMAQSEDGEIIDPYGGKQDLENRILRHISPAFSEDPLRVLRVARFAARYHSLGFKIASETLALMAELAQSGELQHLTAERIWLETEKALNEKNPEIYFETLHKTGALSVLFSEIDALYGVPNPVKHHPEVDSFIHTMLVLKQAVNLTENNPILNKSAVRFAAICHDLGKALTPQNILPHHYGHEQAGIKPTRSLCKRLKVPSYFQELAELTCEFHTHIHKAFELRAETVITLFNRFDVWRKPQRFQEFLQVCLADTRGRTGFETKDYPQIDYINQLLHAANEVDVQQVIADGFEKQAIKNELTKRRILAVKQTKTNYPTN	not soluble
MNVMMQKVHGSENDFFLLDETQFERSLTAEEIEQLRIQLCSRETGLLAGADGLLLVGEGTHGTSNARMRVINSDGSEASMCGNGLRTVARYLAEKNQEKSFTVETMFADLKVRQAPNLAEEVATYQVEISPVSFEAVTIPMHLGVQTLIDEIVPALSNTIRFTAVAVPNPHLVAFVDHETLNGPEFERIATYVNNENPYFPEGINVSFVEILGKNQLFVRTYERGVGFTSACGTAMCASSLLYTLLKDGVFYEEITVKNTGGMVKTVVHETSDGSYWMELIGNATITHLIEGSLTDLLNGAFEKITITETNEQKHYQEFLQTLSQK	not soluble
MGSDKIHHHHHHMQKLVEQVWDYTKHAKFYSYRPNYAPKTIDMLISLVGKKDIKVADIGAGTGNLSIMLLERGCKVVSVEPNDAMREIGIERTKDQKIDWVRATGLNSTLQNSEFDWVTFGSSFNVMDRNEALEEAHRLLKSEGYFSCMWNHRDLNDPVQKIAEDTIVEFVPNYTRGTRREDQRPIIESRKDLFDNIVYIEEDFYFHQSIENYINAWKSVKNPYWDLETDEGNELFNKISNKISQRLPKEFSIKYTTRCWSAKKI	not soluble
MTKLVIDTVGPATSVQDAGRHGAQRYGLPPSGAMDRLSLAAANVLVGNSAFAAAIELGPLGAKLSVRDGAVRLALTGAERPAALDGQPLAFNESFTLAEGQILTLGVARGGVFSYLGIEGGVGGEPMFGSLAVNARAGLGSPYPRPLQAGDAIAVKSAAPSVERRLDLPEQQDTPIRVVLGPQDDEFGAAVEIFLTGEWTMSATSDRMGYRLDGPQISHLHGHNIVSDGTVDGSIQVPGSGQPIVLMPDRGTSGGYPKIATVISADLGRLAQRQPGRPFRFQAVSVEEAQDAYRTMAKLIRSLPDLLRDAQHAIIDLDALLSANVAGTAIDALAAELEHHHHHH	not soluble
MGHHHHHHSHKNMKPIGCNAVQLTGGEPTLRDDLIDIIRMIKEEGYDHIQLNTNGIRLAEDPDFALRVRVAGVNTVYLSFDGVDEKTNPKNHHEIPKILENCRRAQLGLVLVPTVIKGVNDHQLGDIIRFAAENIDIVRGVNFQPVSLVGSMPRKEREQFRITIPDCIKAIEEQTNGEIGREDFYPVPSVVPISRFVEALTGQPQYELTTHFACGMATYIFKDNGRLIPITRFVDVEGLFEF	not soluble
GPLGSMSFTNATFSQVLDDLSARFILNLPAEEQSSVERLCFQIEQAHWFYEDFIRAQNDQLPSLGLRVFSAKLFAHCPLLWKWSKVHEEAFDDFLRYKTRIPVRGAIMLDMSMQQCVLVKGWKASSGWGFPKGKIDKDESDVDCAIREVYEETGFDCSSRINPNEFIDMTIRGQNVRLYIIPGISLDTRFESRTRKEISKIEWHNLMDLPTFKKNKPQTMKNKFYMVIPFLAPLKKWIKKRNIANNTTKEKNISVDVDADASSQLLSLLKS	soluble
DLYFNPRFLADDPQAVADLSRFENGQELPPGTYRVDIYLNNGYMATRDVTFNTGDSEQGIVPCLTRAQLASMGLNTASVAGMNLLADDACVPLTTMVQDATAHLDVGQQRLNLTIPQAFMSNRAR	soluble
